Values of other authors as cited in PMC11133458.

Target: Glu14 (UniProt position 14, GAILAEVIGTT)
Conditions: TPP-bound EmrE (Glu14 of monomer A deprotonated)

## EmrE (multidrug efflux transporter, small multidrug resistance family) (Escherichia coli)
  pKa: 6.8
